Measurements as given in patent publication US20160311916A1 (ALLIGATOR BIOSCIENCE, published 2016).

Assays:
[1] = molecular target: T1, Fc-fused CD40 (Ancell, #504-820) (human, UniProt P25942 21-193); assay: ELISA, coated Fc-fused CD40, full IgG
T1 construct: Bought reagent; not shown: Fc part of the bought fusion protein
Protocol: (§1) Purified full IgG molecules were analysed with ELISA. High binding flat bottom LIA plates (Greiner #655074) were coated with Fc-fused CD40 (Ancell, #504-820) at 0.05 μg/ml, and milk powder were used at 3% for blocking and at 1% for dilution. The antibodies to be tested were added in serial dilutions starting at 50 μg/ml and detection was carried out using HRP conjugated goat anti human Ig-Fc (Jackson ImmunoResearch, #109-035-098) and Super Signal Pico Chemiluminescent (ThermoScientific, #37069) was used as substrate.

human CD40 [2] = molecular target: T2, human CD40 (human, UniProt P25942 21-277); assay: cell-based or functional assay
[3] = molecular target: T3, CD40hfc (R&Dsystems, USA) (human, UniProt P25942 21-193); assay: SPR Biacore 3000, CD40hfc immobilized on CM5, antibody as analyte, 1:1 Langmuir
T3 construct: Bought reagent, amine-coupled to a CM5 chip; not shown: Fc part of the bought fusion protein
Protocol: (§2) The affinity constants of purified antibodies were assessed by surface plasmon resonance using the Biacore 3000 instrument according to manufacturer's protocols. CD40hfc (R&Dsystems, USA) was immobilized to the BIAcore sensorchip, CM5, using conventional amine coupling. Association was followed for 3 minutes and dissociation for 12 minutes. Regeneration was performed twice using 50 mM NaOH for 30 seconds. The kinetic parameters and the affinity constants were calculated using BIAevaluation 4.1 software. The CD40 antibody clones were run over the sensor at a flow rate of 30 μl/min in HBS-P (GE, BR-1003-68) at concentration ranges between 1-100 or 1-300 nM and analyzed using 1:1 Langmuir with drifting baseline.

human CD40 [4] = molecular target: T2, human CD40; assay: cell-based or functional assay; remark: listed apart in the source
[5] = molecular target: T1, Fc-fused CD40 (Ancell, #504-820); assay: CD40 binding ELISA (summary table, Example 3)
Protocol: as §1

[6] = molecular target: T3, CD40hfc (R&Dsystems, USA); assay: SPR Biacore 3000, CD40hfc immobilized (summary table, Example 6)
Protocol: as §2

[7] = molecular target: T4, CD40 cys1B mouse: Human CD40 with mouse module B of domain 1 (38-59) (human; mouse, UniProt P25942 21-277); assay: flow cytometry on 293-F cells transfected with the chimera; MFI scored + or -
T4 construct: Human/mouse chimera on FreeStyle 293-F cells; Human flanks inferred from the printed mouse range
T4 chain: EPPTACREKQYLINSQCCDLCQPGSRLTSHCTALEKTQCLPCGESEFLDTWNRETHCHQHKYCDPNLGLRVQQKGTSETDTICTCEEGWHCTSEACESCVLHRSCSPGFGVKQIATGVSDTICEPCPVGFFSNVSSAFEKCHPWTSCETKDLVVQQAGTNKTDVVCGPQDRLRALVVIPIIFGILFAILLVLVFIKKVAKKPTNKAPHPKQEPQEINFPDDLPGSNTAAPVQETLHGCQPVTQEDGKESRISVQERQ
Description: (§3) Genes of CD40 human/mouse chimeras were synthesized (GenScript). The different chimeras were designed by exchanging domains or modules of the human CD40 with corresponding mouse CD40 domains or modules. The chimeras were designed after evaluation of the human and mouse sequences and 3D analysis of human CD40. The constructs were cloned into pcDNA3.1 vector (Invitrogen) using the restriction sites for NotI and HindIII. The mouse/human chimeras were transiently transfected into FreeStyle 293-F cells (Invitrogen), incubated 48 hours in FreeStyle 293 expression medium (Invitrogen) 37C, 8% CO2, 135 rpm.
(§4) Cells were analyzed with FACS Verse (BD Biosciences). Binding to the different chimeric constructs were determined with MFI to be either positive (+) or negative (−).

[8] = molecular target: T5, CD40 cys3B mouse: Human CD40 with mouse module B of domain 3 (122-143) (human; mouse, UniProt P25942 21-277); assay: as above
T5 construct: Human/mouse chimera on FreeStyle 293-F cells; Human flanks inferred from the printed mouse range
T5 chain: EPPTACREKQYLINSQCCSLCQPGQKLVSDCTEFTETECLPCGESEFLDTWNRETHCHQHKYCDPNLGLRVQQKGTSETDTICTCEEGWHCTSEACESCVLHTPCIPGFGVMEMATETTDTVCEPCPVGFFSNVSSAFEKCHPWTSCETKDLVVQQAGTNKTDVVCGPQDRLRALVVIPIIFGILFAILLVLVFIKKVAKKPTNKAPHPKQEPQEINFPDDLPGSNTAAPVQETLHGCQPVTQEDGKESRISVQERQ
Description: as §3, §4

[9] = molecular target: T6, CD40 cys2A mouse: Human CD40 with mouse module A of domain 2 (62-77) (human; mouse, UniProt P25942 21-277); assay: as above
T6 construct: Human/mouse chimera on FreeStyle 293-F cells; Human flanks inferred from the printed mouse range
T6 chain: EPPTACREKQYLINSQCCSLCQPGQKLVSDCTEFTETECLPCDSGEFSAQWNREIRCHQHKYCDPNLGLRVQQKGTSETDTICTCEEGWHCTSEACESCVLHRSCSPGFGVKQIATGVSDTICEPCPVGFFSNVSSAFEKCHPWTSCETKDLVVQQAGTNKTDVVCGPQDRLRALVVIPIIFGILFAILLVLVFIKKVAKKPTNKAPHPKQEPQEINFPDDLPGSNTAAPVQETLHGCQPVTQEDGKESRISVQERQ
Description: as §3, §4

murine CD40 = molecular target: T7, murine CD40 (mouse, UniProt P27512 20-193, limits assumed); assay: chimeric domain mapping, flow cytometry
T7 construct: How murine CD40 was presented in the assay is not described; also called mouse CD40
Description: as §3, §4

T7 sequence (P27512 20-193 limits assumed): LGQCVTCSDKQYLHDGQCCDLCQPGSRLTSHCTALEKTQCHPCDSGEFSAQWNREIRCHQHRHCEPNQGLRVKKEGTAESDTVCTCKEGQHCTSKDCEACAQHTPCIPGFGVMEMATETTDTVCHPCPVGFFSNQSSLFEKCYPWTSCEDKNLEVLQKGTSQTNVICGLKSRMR

Row | Binder | EC50 [1] [µg/mL] | Potency B cell proliferation (EC50) (human CD40 [2]) [µg/mL] | Kd [3] [nM] | koff [3] [s⁻¹] | kon [3] [M⁻¹ s⁻¹] | B cell proliferation (human CD40 [4]) | EC50 [5] [µg/mL] | Kd [6] [nM] | koff [6] [s⁻¹] | kon [6] [M⁻¹ s⁻¹] | binding result [7] | binding result [8] | binding result [9] | B cell proliferation (see Example 3) (human CD40 [4]) | DC activation (index: IL-12p40 with antibody divided by IL-12p40 with isotype control) (human CD40 [4]) [index] | binding result (murine CD40)
1 | antibody 1136/1137 (antibody, V domains shown, Re-cloned from scFv into full IgG format, made in 293 Freestyle cells) VH: not shown VL: DIQMTQSPSSLSASVGDRVTITCRASQSISSYLNWYQQKPGKAPKLLIYAASSLQSGVPSRFSGSGSGTDFTLTISSLQPEDFATYYCQQAYYAGLFTFGQGTKLEIK | 1.4 | 1 | 11 | 0.0095 | 870000 | 1 | 1.4 | 11 | 0.0095 | 900000 | – | – | – | – | – | –
2 | antibody 1134/1135 (antibody, V domains shown, Re-cloned from scFv into full IgG format, made in 293 Freestyle cells) VH: EVQLLESGGGLVQPGGSLRLSCAASGFTFSSYAMSWVRQAPGKGLEWVSSIYSGGGGTSYADSVKGRFTISRDNSKNTLYLQMNSLRAEDTAVYYCARGPAYSSFFDYWGQGTLVTVSS VL: not shown | 0.025 | 1 | 3.4 | 0.0014 | 400000 | 1 | 0.025 | 3.4 | 0.0014 | 400000 | – | – | – | – | – | –
3 | antibody 1150/1151 (antibody, V domains shown) VH: EVQLLESGGGLVQPGGSLRLSCAASGFTFSSYAMSWVRQAPGKGLEWVSGIGGSSSYTSYADSVKGRFTISRDNSKNTLYLQMNSLRAEDTAVYYCARYYSYHMDYWGQGTLVTVSS VL: DIQMTQSPSSLSASVGDHVTITCRASQSISSYLNWYQQKPGKAPKLLIYAASSLQSGVPSRFSGSGSGTDFTLTISSLQPEDFATYYCQQYGSAPPTFGQGTKLEIK | 0.041 | 0.9 | 1.5 | 0.0034 | 2.2e+06 | – | 0.041 | 1.5 | 0.0034 | 2.2e+06 | no binding | binds | binds | 0.9 | 7.8 | no binding
4 | antibody 1132/1133 (antibody, V domains shown, Re-cloned from scFv into full IgG format, made in 293 Freestyle cells) VH: EVQLLESGGGLVQPGGSLRLSCAASGFTFSSYAMSWVRQAPGKGLEWVSGIGSYGGGTYYADSVKGRFTISRDNSKNTLYLQMNSLRAEDTAVYYCARYVNFGMDYWGQGTLVTVSS VL: DIQMTQSPSSLSASVGDRVTITCRASQSISSYLNWYQQKPGKAPKLLIYAASSLQSGVPSRFSGSGSGTDFTLTISSLQPEDFATYYCQQYGRNPPTFGQGTKLEIK | 0.28 | 2.2 | 2.4 | 0.0081 | 3.4e+06 | – | 0.28 | 2.4 | 0.0081 | 3.4e+06 | no binding | binds | binds | 2.2 | 10.8 | no binding
5 | antibody 1146/1147 (antibody, V domains shown, Re-cloned from scFv into full IgG format, made in 293 Freestyle cells) VH: not shown VL: DIQMTQSPSSLSASVGDRVTITCRASQSISSYLNWYQQKPGKAPKLLIYAASSLQSGVPSRFSGSGSGTDFTLTISSLQPEDFATYYCQQYYYYPFTFGQGTKLEIK | 0.58 | 3.6 | – | – | – | – | 0.58 | – | – | – | – | – | – | 3.6 | – | –
6 | antibody 1148/1149 (antibody, V domains shown, Re-cloned from scFv into full IgG format, made in 293 Freestyle cells) VH: not shown VL: DIQMTQSPSSLSASVGDRVTITCRASQSISSYLNWYQQKPGKAPKLLIYAASSLQSGVPSRFSGSGSGTDFTLTISSLQPEDFATYYCQQAYYFPHTFGQGTKLEIK | 2.2 | 2.3 | – | – | – | – | 2.2 | – | – | – | – | – | – | 2.3 | – | –
7 | antibody 1107/1108 (antibody, V domains shown, Re-cloned from scFv into full IgG format, made in 293 Freestyle cells) VH: not shown VL: DIQMTQSPSSLSASVGDRVTITCRASQSISSYLNWYQQKPGKAPKLLIYAASSLQSGVPSRFSGSGSGTDFTLTISSLQPEDFATYYCQQYGVYPFTFGQGTKLEIK | 0.034 | 0.7 | 1.3 | 0.0013 | 1e+06 | – | 0.034 | 1.3 | 0.0013 | 1e+06 | binds | binds | no binding | 0.7 | 22.3 | no binding
